This is an account of results in paper PMC9763423.

This test concerns the target JOSD1 (UniProt Q15040). Briefly: co-immunoprecipitation, immunoblot. To be noted: reference: Flag-MCL1 WT; sites S159. In general terms: Immunoblotting shows a protein as a band on a membrane.

As for “MCL-1 (from UniProt Q07820) Flag-MCL1 S159A”, the “binding against the reference” value was “stronger”.
